Reference: patent US20120164161A1 (AFFITECH RESEARCH, published 2012)
Positions count from the first letter of the chain named.

T1: human CC chemokine receptor 4 (CCR4) (human, UniProt P51679 1-360)
T1 construct: whole, on cells; also called human CCR4; CD194
T1 sequence (looked up): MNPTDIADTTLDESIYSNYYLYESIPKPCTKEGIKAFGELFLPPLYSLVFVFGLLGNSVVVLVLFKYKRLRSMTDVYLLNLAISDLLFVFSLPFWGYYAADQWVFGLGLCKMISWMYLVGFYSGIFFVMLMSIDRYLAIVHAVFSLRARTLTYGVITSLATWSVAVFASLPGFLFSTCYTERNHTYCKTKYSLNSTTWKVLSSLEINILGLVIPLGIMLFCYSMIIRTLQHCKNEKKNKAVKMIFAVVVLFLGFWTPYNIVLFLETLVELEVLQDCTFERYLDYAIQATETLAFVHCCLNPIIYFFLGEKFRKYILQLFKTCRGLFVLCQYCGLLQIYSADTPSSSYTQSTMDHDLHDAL

T2: monkey (Macaca mulatta) CCR4 (monkey (Macaca mulatta), UniProt F7GUA3 1-360)
T2 construct: also called monkey CCR4
T2 sequence: T1 sequence (looked up) with M116I, L201I, L215F, E269D, L334F

T3: mouse CCR4 (mouse, UniProt P51680 1-360)
T3 construct: whole, on cells; also called murine CCR4
T3 sequence (looked up): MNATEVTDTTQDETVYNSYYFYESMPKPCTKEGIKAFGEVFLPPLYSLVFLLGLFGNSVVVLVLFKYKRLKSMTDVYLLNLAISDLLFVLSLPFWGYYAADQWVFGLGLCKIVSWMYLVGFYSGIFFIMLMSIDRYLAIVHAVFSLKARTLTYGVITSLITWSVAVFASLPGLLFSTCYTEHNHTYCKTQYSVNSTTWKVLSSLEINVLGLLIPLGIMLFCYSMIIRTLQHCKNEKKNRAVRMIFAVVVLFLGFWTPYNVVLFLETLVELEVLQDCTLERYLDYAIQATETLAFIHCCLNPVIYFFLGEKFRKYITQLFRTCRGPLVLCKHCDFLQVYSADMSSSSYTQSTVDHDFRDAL

B1: 603 scFv (scFv, not shown: small tags and cut ends)
scFv: QVQLVQSGAEVKKPGSSVKVSCKASGGTFSSYAMSWVRQAPGQGLEWMGGIIPIFGTVNYAQKFQGRVTMTRDTSTSTVYMELSSLRSDDTAVYYCARRRGAKFDYWGQGTLVTVSSKLSGSASAPKLEEGEFSEARVSYVLTQPPSASGTPGQSVTISCSGSTSNIGSHYVVWYQQLPGTAPRLLIYRNHQRPSGVPDRLSGSKSGTSASLAIGGLRSEDEADYYCAVWDDTLSGWVFGGGTKLTVL
notes: Expressed in TG1 bacteria; also called scFv 603; antibody 603 (single chain form)
B2: IgG form of antibody 306 (defucosylated IgG1) (antibody, V domains shown)
VH: QVQLVQSGAEVKKPGSSVKVSCKASGGTFSSYAMSWVRQAPGQGLEWMGGIIPIFGTVNYAQKFQGRVTMTRDTSTSTVYMELSSLRPDDTAVYYCARRGGSYFDYWGQGTLVTVSS
VL: SYVLTQPPSASGTPGQSVTISCSGSTSNIGSHYVSWYQQLPGTAPRLLIYRNHQRPSGVPDRLSGSKSGTSASLAISGLRSEDEADYYCAVWDAKYRGWVFGGGTKLTVLG
notes: Human IgG1, lambda light chain; produced in presence of Kifunensine (defucosylated); Biotinylated via cysteines for the human serum experiment
B3: IgG form of antibody 406 (defucosylated IgG1) (antibody, V domains shown)
VH: B2 VH with G26E, P88S
VL: B2 VL
notes: as for B2
B4: IgG form of antibody 503 (defucosylated IgG1) (antibody, V domains shown)
VH: B2 VH with G26E, P88S, G100R, S102A, Y103K
VL: B2 VL with S35V, S77G, A94D, K95T, Y96L, R97S
notes: as for B2

What was measured:
[1] = molecular target: T1, human CC chemokine receptor 4 (CCR4); assay: flow cytometry on DT40 cells expressing human CCR4; scFv cross-linked with mouse anti-Myc antibody, detected with RPE anti-mouse IgG; MFI (PE-signal)
Protocol: For the flow cytometry experiments, the cells were harvested from the culture flasks, washed 2 times with PBS, re-suspended in PBS with 0.2% BSA and 0.09% NaN3 and finally aliquoted 1×10^5 cells per well into V-shaped 96-well plates (Greiner Bio-One, Frickenhausen, Germany). Cells were centrifuged at 400×g for 5 min and then incubated at 4° C. for 60 min with different scFv dilutions.
All scFv preparations were pre-incubated with a mouse anti-myc-antibody (9E10.2, Diatec, Oslo, Norway) to cross-link scFvs prior adding to the cells and diluted 3-fold, starting at a concentration of 10 μg/ml.
After washing with PBS with 0.2% BSA and 0.09% NaN3, the cells were stained with 1 μg/ml of RPE-conjugated goat anti-mouse IgG (AbD Serotec, Duesseldorf, Germany) for 30 minutes at 4° C. The stained cells were washed, re-suspended in 200 μl PBS with 0.2% BSA and 0.09% NaN3 and transferred to a U-shaped 96-well plate (Corning, Schiphol-Rijk, The Netherlands) for acquisition on EasyCyte flow cytometer (Guava Technologies, Hayward, Calif., USA).

[2] = molecular target: T1, human CC chemokine receptor 4 (CCR4); assay: cell-based or functional assay
[3] = molecular target: T1, human CC chemokine receptor 4 (CCR4); assay: cell-based or functional assay; remark: listed apart in the source
[4] = molecular target: T1, human CC chemokine receptor 4 (CCR4); assay: flow cytometry on Hut78 cells (CCR4-positive); defucosylated IgG1, detected with RPE anti-human IgG; Median-PE [panel Hut78]
Protocol: (§1) All cells were re-suspended in PBS with 0.2% BSA and 0.09% NaN3 and finally aliquoted 1×10^5 cells per well into V-shaped 96-well plates (Greiner Bio-One, Frickenhausen, Germany). Cells were centrifuged at 400×g for 5 min and then incubated at 4° C. for 60 min with different IgG dilutions. For binding in presence of human serum, CCRF-CEM cells were incubated with different IgG-solutions at either 10% or 50% of human serum (Sigma Aldrich, St Louis, Mo., USA) at 37° C. for 60 min.

[5] = molecular target: T1, human CC chemokine receptor 4 (CCR4); assay: flow cytometry competition; IgG titrated from 5 ug/ml against fixed Alexa647 MDC-SNAP (50 nM); competitor MDC-SNAP
[6] = molecular target: T2, monkey (Macaca mulatta) CCR4; assay: flow cytometry on transiently transfected HEK-293T/17 cells, IgG 1 ug/ml (data not shown)
Protocol: (§2) For transient transfection, Hek293T/17 cells were seeded as 2×10^6 cells in a T75 (NUNC) flask. 48 h after seeding, the cells were transfected with Fugene (ROCHE). 40 μl Fugene and 16 μg DNA are used per T75. The cells were used for assays 48 h after transfection.
(§3) Non-transfected (CCR4 negative) cells served as a negative control. The cells were cultivated further for 48 hours under regular conditions and harvested form flasks as described above. One times 10^5 cells per well were aliquoted into V-shaped 96-well plates (Greiner Bio-One, Frikenhausen, Germany). […] The samples were then washed twice by centrifugation and re-suspension in 150 μl FACS buffer. […] The samples were washed twice as described above and re-suspended in 250 μl FACS buffer followed by transfer into a U-shaped 96-well plate (Corning, Schiphol-Rijk, Netherlands) for flow cytometry on FACSCantoII (BD Biosciences, San Jose, Calif.).

[7] = molecular target: T1, human CC chemokine receptor 4 (CCR4); assay: flow cytometry competition; IgG titrated from 2.5 ug/ml against fixed biotinylated TARC; competitor biotinylated TARC
[8] = molecular target: T1, human CC chemokine receptor 4 (CCR4); assay: cell-based or functional assay; remark: listed apart in the source
[9] = molecular target: T1, human CC chemokine receptor 4 (CCR4); assay: cell-based or functional assay; remark: listed apart in the source
[10] = molecular target: T1, human CC chemokine receptor 4 (CCR4); assay: flow cytometry on CCRF-CEM cells; defucosylated IgG1, detected with RPE anti-human IgG; Median-PE [panel CCRF-CEM]
Protocol: as §1

[11] = molecular target: T3, mouse CCR4; assay: flow cytometry on transiently transfected HEK-293T/17 cells, IgG 1 ug/ml
Protocol: as §2, §3

[12] = molecular target: T1, human CC chemokine receptor 4 (CCR4); assay: cell-based or functional assay; remark: listed apart in the source

| Binder | EC50 (read off the curve) [1] [µg/mL] | IC50 of inhibition of TARC-mediated Ca-Flux in CCRF-CEM cells [2] [pM] | Inhibition of CCL17/TARC-induced migration of CCRF-CEM cells, IC50 [3] [pM] | Inhibition of CCL22/MDC-induced migration, Blockage of migration in % (IgG 10 µg/ml) [3] [%] | EC50 (read off the curve) [4] [nM] | IC50 [5] [nM] | binding result [6] | IC50 [7] [nM] | Inhibition of MDC (Ca-Flux), Blockage of signaling in % at 10 µg/ml IgG [8] [%] | Inhibition of TARC (Ca-Flux), IC50 [8] [pM] | ADCC on CCRF-CEM cells with human PBMCs, EC50 [9] [pM] | ADCC on CCRF-CEM cells, Max. Killing (%; nM IgG) [9] | ADCC on L-428 cells with human PBMCs, EC50 [9] [pM] | ADCC on L-428 cells, Max. Killing (%; nM IgG) [9] | EC50 (read off the curve) [10] [nM] | binding result [11] | IC50 of inhibition of CCL17/TARC-induced invasion of 786-O cells, CCL17/TARC 25 nM [12] [µg/mL] | IC50 of inhibition of CCL17/TARC-induced invasion of 786-O cells, CCL17/TARC 125 nM [12] [µg/mL] |
| --- | --- | --- | --- | --- | --- | --- | --- | --- | --- | --- | --- | --- | --- | --- | --- | --- | --- | --- |
| B1 | ~0.3 | 2 | – | – | – | – | – | – | – | – | – | – | – | – | – | – | – | – |
| B2 | – | – | 158 | 50 | ~0.06 | 0.28 | binds | 0.51 | 74 | 39 | 114 | 118 % (at 1.4 nM IgG) | 708 | 88 % (at 7 nM IgG) | ~0.06 | binds | – | – |
| B3 | – | – | 178 | 49 | ~0.08 | 0.27 | binds | 0.94 | 74 | 28 | 99.9 | 121 % (at 1.4 nM IgG) | 704 | 78 % (at 7 nM IgG) | ~0.2 | binds | – | – |
| B4 | – | – | 39 | 39 | ~0.05 | 0.11 | binds | 0.87 | 64 | 13 | 5.3 | 108 % (at 1.4 nM IgG) | 233 | 93 % (at 7 nM IgG) | ~0.02 | binds | 0.12 | 1.33 |
